The subject of one data set is Raji cells. Kind of data set: ADCC assay (CytoTox 96, LDH release), positive control cell line. The format is cell-based, human. The settings on record: E:T=100:1, 2.5 ug/mL, 4 hours.
For the next data set, the system named is EOL-1 cells. Kind of data set: EOL-1 growth with human FLT3 ligand and antibody (Cell Titer Glo, 5 days). The format is cell-based. As for the experimental part: The ability of FLT3 antibodies (CHv62.21 and v62-1b37.1) to mediate the effect of human FLT3 ligand was evaluated using the human leukemia EOL-1 cell line, which endogenously expresses FLT3. Isotype control antibody (mLys-1c3.1) was also used. […] The next day, cells were treated with 50, 10 or 5 ng/mL of human FLT3 ligand (in 25 μl of complete media) and 10, 1, 0.1 and 0 μg/mL of test antibody (in 25 μl of complete media). Media alone was used as the untreated control. […] At the end of the incubation period, 100 μl of Cell Titer Glo was added to each well and incubated for 30 minutes, shaking, at room temperature.

Another data set deals with cell surface FLT3 (Homo sapiens, UniProt P36888). Kind of data set: Binding to cell surface FLT3 by flow cytometry. The source says: To express CHv62.21 MAb recombinantly in transfected cells, v62.21 hybridoma MAb variable heavy and light chain sequences were cloned upstream of the human heavy chain IgG1 and human light chain Igκ constant regions respectively. The complete CHv62.21 MAb human heavy chain and light chain cassettes were cloned downstream of the CMV promoter/enhancer in a cloning vector. The recombinant CHv62.21 MAb expressing construct was transfected into CHO cells for stable expression in the Lonza GS system (Lonza, Basel, Switzerland). The CHv62.21 MAb secreted from recombinant CHO cells was purified and evaluated for binding to cell surface FLT3 by flow cytometry.
To express CHv62.21pAF recombinantly in transfected cells, v62-1b21 hybridoma MAb variable heavy and light chain sequences were cloned upstream of the human heavy chain IgG1 and human light chain Igκ constant regions respectively. The complete CHv62.21 MAb human heavy chain and light chain cassettes were cloned downstream of the CMV promoter/enhancer in a cloning vector. […] The CHv62.21pAF secreted from the stable subclone was purified and evaluated for binding to cell surface FLT3 by flow cytometry.

A further data set has as its system RS-4-11 cells. In kind it is cell-based, human.

Description for RS-4-11 cells: Briefly, The RS-4-11 cells were seeded in 50 μl of complete media at a density of 3000 cells per well onto 96 well plates and placed in a tissue culture incubator at 37° C.; 5% CO2. The next day, the ADCs were prepared in complete media at 10 μg/mL and serially diluted 1:5 for a total of 9 points. […] At the end of the incubation period, 20 μl of Presto Blue was added to each well and incubated for 2 hours. The plates were read using a BioTek Synergy H4 plate reader using 540 Excitation and 590 Emission wavelengths and graphed using Graphpad Prism software.

Turning to Rituximab, the ADCC activity result with Raji cells is on record as “confirms ADCC activity”.

B1: Human FLT3 ligand: human FLT3 ligand purchased from R and D Systems (protein)
chain: TQDCSFQHSPISSDFAVKIRELSDYLLQDYPVTVASNLQDEELCGGLWRLVLAQRWMERLKTVAGSKMQGLLERVNTEIHFVTKCAFQPPPSCLRFVQTNISRLLQETSEQLVALKPWITRQNFSRCLELQCQPDSSTLPPPWSPRPLEATAPTAPQPP
As to B1, the “effect on growth, FLT3 ligand alone” value in the data set on EOL-1 cells was “no effect on growth”.

B2: v62-1b21: hybridoma FLT3 MAb from VelocImmune mice, fully human variable regions and mouse constant regions (antibody, V domains shown)
VH: EVQLVESGGGLVRPGGSLRLSCAASGFTFSGYSINWVRQAPGKGLEWVSSISSSSNYIYYADSVKGRFTISRDNAKNSLYLQMNSLRAEDTAVYYCAREGFIAGTTFDAFDIWGQGTMVTVSS
VL: DIQMTQSPSSLSASVGDRVTITCRASQGIRNDLGWYQQKPGKAPKRLIYAASSLQSGVPSRFSGSGSGTEFTLTISSLQPEDFATYYCLQHNGFPYTFGQGTKLEIKR
B2: the “binding to cell surface FLT3” value in the data set with cell surface FLT3 is “specifically binds to Flt3 protein and Flt3 expressing cells”.

B3: v62-1b21.1-AGL-0129-08 (conjugate)
VH: B2 VH
VL: B2 VL
For B3, the cytotoxicity entry in the data set on RS-4-11 cells is recorded as “can induce cytotoxicity”.

These data come from patent publication US9974865B2, “Antibody drug conjugates (ADC) that bind to FLT3 proteins” (AGENSYS, INC., priority 2015, dated 2018).
